Source: a protein production outcome set (Wang et al. 2014)

Assay: label from the status in PepcDB records

Question: Which protein production does the source give for “MRQHGKVSEVTEKKTAVYVDDQQRILIRQLARSWLWRSELPTWLLIVTVYGGWFACVAGWRTLGLFPATLLLIWFTAWYMSLQHELIHGHPTRLAWFNQLLGTLPLAVWYPYGVYRDSHLAHHRNHLLTHPEDDPESYYVTAESWQRFSAWQRRLIHLRNTFWGRLLLAPMMDIIHTLNSALRAFREGDRRAIAMWSLHLLLLTGLLTWMAAQGFSPLWFVLAVSYPALALTKVRSFLEHRAADDPLARSVINEAGLPWRVLFLNLNYHAVHHDLPGVPWYALRQLYLHRQAAYLQRNQGFLVRGYGEWRRHFSRRAVAVNAHPGFGEQAQAGGEHG” here?
Answer: failed

Question: For “MRQKELETADWQRNLKIAWIGTFFTGASFSIVMPFMALYVEELGVKGAMVEWYAGLSVALSALASALVSPVWGHLADRYGRKPMMIRASMVMTFTMGGLAFVPNVFWMLFLRILNGLFAGYVPNATALIASQAPQQRSGYALGTLSTGLTAGVLIGPLLGGAISEAFGMRGTFLLVGLILFICCLLTIFGLREDFQLIEKVEIMSFSQVFAKIPSKSLLIGLFVTSMIIQISAQSIAPILALYIRYLGQSDNILFYSGLIVSAMGFSSLLSTPYLGRLGDRIGNHRLLLMGLFYSFLLYFLCGFAGSALQLGLLRFAYGFGVGALTPSVNSLLTKMTPKEGISRIFSLNQSFSYIGQVLGPFVGSAVATGLGYRWVFFVTAAIVFGNFVCSLIIFRKSLGVKNIGES”, which protein production is on record?
Answer: failed

Question: Which protein production does the source give for “MRQPPILSEALRLFFPLAALHGAVWPFLWIVIGGYALPFANAVPPSQWHAHEMIFGTYGMALAGFLGSAVPEWTDTKAAAGRTLLCLAGLWLPGRLIGFVGADTWSLLAGFFDLAFLLALSVLIGKAMLVRRTTKHLAFLVWLILFAAAETGVRYAWWMGDLEFAVRCLEAALCIFIVLFSLSAARINVVVINLALDPSGETTPYRPHPGRQHMAGAMVTLYMAAKLLFPESDVCAWLALAAGAAFFDRLAEWFIGRAVFRTEVLLLALGNAFAGAGFLALGATRLGFSVTSAAGLHLLSVGALGCAIMAVFIIAGLRHTGRDLKHLPWQAHAAAALMVMAGLTRILPEFDVAAVLSPYHHGLSAILWAASFGIWLQGFLPFMRAPGTDEAGACG” here?
Answer: failed

Question: With “MRQRKDMPHNRLQTGGMTDEPTDIKAEAKPARTSDLRGFIRLLEERGQLRRIRQPVSLVHEITEIHRRVLADGGPALLFEQPVDHEGKVRKMPLLANLFGTRQRIEWGLGLETGGLPALGQKLTELREPRPPKSMAEAWSKLPLLRAALSMRQRNVSRAPVQEKVLTRDAVDLARLPVQWCWPGEPAPLITWPLVITRSPDDPDDINVGIYRMQVLGPDRVIMRWLAHRGGAHHHRLWQARGLDMPVTVAIGADPATILAAVMPLPDHISELGFSGLLRGAKSRIAKALTVPMPVPANAEIVLEGTVSATETAMEGPYGDHTGYYNSVEAFPVMTLSAITMRRDPIYLSTYTGRPPDEPSVLGEAMLEIFLPLVKRQFAEIVDLWMPPEACSYRVMVASIDKRYPGQAKRVMMGLWSMLPQFSYVKLIILVDPDIDVRSWTDVVWALSTRFDASRDTTIINDTPIDYLDFASPKAGLGGKMGLDATRKLPPETEREWGRVLSMTPDVVAKVDLVWRDLGLGERPLEHHHHHH” as the sequence, how does the protein production read?
Answer: failed

Question: For “MRRCCGDLAASRGGCEPASRNLTRTRLTFAALGRINRPAEHDREDAMTRQEARDHEPRDQDAALSRRTLVRGLALGAAATMAGPALAQTGPAAPPTTITTPPRDFGPNGAPTTYFWDPDIIAVDPSFDDLAQPNTAIKRLYTGVLWAEGPAWSAQGRYLLWSDIPNNRQMRWSEDDGRISVFRSPSNNSNGNSFDFQGRQLSCEHLTRRVTRYEHDGTATVLCDNYNGKKLNSPNDVVAHPDGSYWFTDPPYGGQLYEGEPDAAGGPSNSGGKLNPRIGQPAGFTPGKRELPTNCYRIDPSGRVDLVVTEEQVPDPNGLCFSPDFKKLYVVSTGKGPGDSGPGGKGEIFVFDVGADNKLSNQKRFSDCTIDGVKCGPDGVRCDVNGNVWASSNAGRAVGYSGVTVWSPEGKLLGRIRLPEVCGNICFGGPKRNRLFMAASQSLYAVFTATQGAGPG”, which protein production is on record?
Answer: failed

Question: Which protein production does the source give for “MRRGSGNPERPSLSRDGLRVPPPCPGKRGPGHFSGYHGGMEGIRRAAQRAAEEFLQAFPMAPGSLFVLGGSTSEVLGERVGTRPSLEAAHAVLEGLLPPLLERGVHVAVQACEHLNRALVVERETARAFGLEEVAVFPHPKAGGALATAAFLRFRDPVMVESLKAQAHGGMDIGGVLIGMHLRPVAVPLRLSVRKIGEAVLLAAKTRPKLVGGARAVYTREEMLKKLEEFLPKPP” here?
Answer: not failed

Question: For “MRRLNRKNNEALKKLNDRQRKVLYCIVREYIENKKPVSSQRVLEVSNIEFSSATIRNDMKKLEYLGYIYQPHTSAGRIPTDKGLRFYYEEMLKISKETSEADLAVETFKSMPLADPEKVLFLAGNLLARLTEGYVLIERPNTRDLKILRVMLIPVSEDYLIFSILTEFGVSKVTPIKTQERLNWEEIERQLNFLLRGRTVGEVLMGKIESLKGSGFLRLIESLIGETVERYLDAGLENLLKDETLTLEDIRNLLEEVKDQKFLESLVGEGITVRIGREIGRKKLEKFAVFSGKYFKGESPIGSVYLFTSKVTKYDRNHRVFEYILNRLSEYFTSTSRR”, which protein production is on record?
Answer: not failed

Question: With “MRRSAYMTDTKICKKGCDHDTSHRENEQRCGRGSFWMHDPDLIFSELKLKAGEFFLDMGCGPGDYSIWASKIVGNSGMVYALDKWQELIDNLTEKADLEGIKNIKGMVSDIARPLPIEESCIDVYFISTVLHSLDLAKDSDVIFSEIHRVLKPDGRLAIVECKKEEMSFGPPLHMRLSPEELENLIAKYGFEKINLVDLGYNYMIQFRKSYQK” as the sequence, how does the protein production read?
Answer: failed

Question: With “MRRSGAASRPASRGARTAYIGAMSRSTPPATTRIVCIRHGESTFNAHHEATGRDPGHIDARLSERGHAQVAAARAALRAIPFELVVTSPLTRALQTTAGIFSDHPARPDVLVEVLHRECQESSCDIGRAASVLAQEFPAFKVGHLPETWWYADGEAGPDGWHVEPRTLFDQRVSGFRDWLRARPERTIGVVGHCTFFYHLTGRWLANCEALDVDLTAEPRPRAYG” as the sequence, how does the protein production read?
Answer: failed

Question: For “MRRTNTFAVRPLSDDDERLLLDLLDASASLWNELNYERRQQFFDGESVWDTADYRKQYVGVLGSATAQQVIRKNKSAWQSFFAARENGEDTAPPGYWGNEDDGRELRTFIRHDLYTLDTGERSRVEIPVGQDLKDEYGLGYHDRLRLEVAGDPKWDGEQGRLEIQYGETDDTFRAFQPVTVPDSRQDSPLASHEAALDVGANNLVACTTTTGEQYLYEGRGLFAHFRETTREIARLQSKLREGRYSSQRIRRLYRKRTRRRDHAQDALVRDLMERLYAEGVDTVYVGDLTDVLSTHWCAEVNAKTHQFWAFRAFIERLSHTAEEYGITVEVRSEADTTRTCPACGEQDDTDRDGDVFRCPCGHEAHADLCASRTFLERQTGKPVGSMARPVRLKWDDHNWSEIPHSPERARPNEKRTNQSTDSQDGKLASVGTA”, which protein production is on record?
Answer: failed

Question: Which protein production does the source give for “MRRVTVPTAPPAYADIGYPMSMLPIKSSRAVSGIQQKQEVLPGMDTPSNSMRPVADDNIDHTSHTPNGVASAFILEATVNVISGPKVLMKQIPIWLPLGIADQKTYSFDSTTAAIMLASYTITHFGKANNPLVRVNRLGQGIPDHPLRLLRMGNQAFLQEFVLPPVQLPQYFTFDLTALKLVTQPLPAATWTDETPSNLSGALRPGLSFHPKLRPVLLPGKTGKKGHVSDLTAPDKIQTIVNLMQDFKIVPIDPAKSIIGIEVPELLVHKLTGKKMSQKNGQPIIPVLLPKYIGLDPISPGDLTMVITPDYDDCHSPASCSYLSEK” here?
Answer: not failed

Question: Which protein production does the source give for “MRSFLLGGVRPRDFWSMLKNLALRVDGEGAMDIGAWLRDQGLGQYEGTFRQNDIDPEVLRHLTAEDLIGVGVASVGHRRKLLAAIAALREVAEQPSGAAGFGATPVINPEAERRQLTVMFVDLVESTRLSSRLDPEEMGELLRGYQRAVAGAIARFEGHVAKYMGDGVLAYFGYPRAHEDEAERAVRAGLAAIDAVRKLQPPHGETLEARVGIATGLVVVGELIGEGAAREETVIGETPNLAARLQSVAEPGAVVVASATRQLIGGLFDLAELGFHPLKGFAASIPAWRVLGESSAESRFEAFHGASLTPLVGREHDIGLLLKRWEAVKKGKGRVVLLAGEPGIGKSRLVRALRRRLEGEPHTTVSHYCSPYHQTSPLYPVIRLLERAAGFAAEDPPEVKLSKLEALLTQSIEEVADAAPLLAALLSVPADDRYQPLELSPHRQKKRMLEVLVDQLIGLAARQPILAVYEDVHWADPTSLELLDLVVDRVQDSPVLVLITFRTEFLPPWTRYPHVTVLTLSRLSRRQGAEMVDRLTGRRALPTEVLDQIVAKTDGVPLFVEELTRAILETSLLKAEGDHYALARPLSAISIPATLHESLLARLDRLAPAREVMQVAAAIGREFSHELLVTAAPLQASEVEEALEDLIASGLVFRHGTPPQLTYSFKHALVRDAAYATLVRTKRQRLHAAIATAIEQRFPEMVQTQPELLAQHYAEAGRLEPAVNYWLRAGQAEIARSATTEAISHLTRGLELLEGLPDDAARLRKELELQVALSVALMTAKGWAAPEVGRANARARNLCERLGDKSRLFPVLYGDWVFHVVRAELEAGRKAGEELLRRAQEEREVSAEIVGNRIAGTGAFLRGEIANAREYLERSLALYDPQQHRALAFLFAQDPRVAGLSVLSLTLFALGYPEQAQARSNEALADARELSHSNTLGFALLYGCILSQLRGDWREARDRAGSLITLARAQGSPHFLGAGKILQGWTLGQTGELPAASTKVQEGLASWQMTGARFLVPYFLSLLARVETQSAGAKRALDLLTDALQRARETGERWFEAELHRLTGELMLQLPAFDRAEGEARLQHAVELARGQGADLWELRAATSLARLRIGQNRFGDVHHLLAPLCGKFAEGFATTDLQSAQRLLREAAGFDGAIKSSD” here?
Answer: failed

Question: With “MRSLWVFYRTAPDTIVFFDDSPTARFSTVVAFYNHRTGGPMSFAQRDPIGELSLLTHIFIKYREPYVTDGQCRVIVQSKRPIMSSIEQYSQKPFYAHKGTDESSQDTETTEDIVVKEGKHFWIEFDPPEEPFTDTSRRVLRLVRNVEQHRQPGYCTFSKSLFVERNGNDIFKPYRLYPTHNFEDKYFSSAEVKESASLYDLSSLKKNEIRPTLERYEEALKAEVLTPLRNALIPCMVEVYRREIGFESEPDKSLRNASYSSVLSWGSTLRFTLRLWDRIVSGQPLAQVKSEDWFEGTFEKVPSAVSQGARSAIRYYVSDKKLSRDYVLAQALPVYFKWAACREAIQSKLHEQKTDFFAVDTELDKTHVLSGDNVPAKIKKLLEEAAARRKDALSENTIQAYQHAIDHFKSFCERHGPKALPASPETLIAYFEHLAQNGYAESTIRKRRSAIRFLHERSMNESPTTSESVRRYFDDLRKTIPESRGHGQKDPILFHHLHQMSFDEEELSDLRDRAILYIGVATGLRDSGLIGLEMRDIFEKEGGVVYRIRDPKGEGDPGPERVSVPHEVPALTPSPNEALTAWIEAAGIESGAVFRSVDQYGNVGGDDGLSSGSISKDIVKPWMKSIGEDPSEYSCHSLRAGFVTQAILDGITEPRIAAQSRHKSIEALREYERPTNDMKNHMLKEMG” as the sequence, how does the protein production read?
Answer: failed

Question: For “MRSMLQDSLVLLDYLRGMLLHNEELWLLLFPVMIIIELPLYLLVLTGIFRWSYMREEPELKRFPSVSFVITCYGEGEAIGITIDTLVEQIYPGHIEILAVVDGAVQNQDTYKAALNGERRHTGVRNRKVRVLPKWQRGGRVSTLNAGLSMASGEIVINVDGDTSFDNDMVFTMMKQFADKNVIASGGALRVRNHNANLLTKMQSLEYMLSMQAGKTGMATWGVLNNISGAFGAFRKNLLKQVGGWDTHTAEDLDLTMRLKQYKCRYPDNKLAFSTHSIGHTDVPDTLKGLVLQRLRWDGDLLFLFLRKHNEGLSPRLLGWGNFVFTLAYGVIQNVLLPLLVVIFSVYMVIVYPLKFVLALMLMLYFVYLFLSALIFVVYIGLVSERKKEDLKSVKWLFLYPVYQFFMRLITAFSMVNEVVRRSHEESSMAPWWVLKRGKKF”, which protein production is on record?
Answer: failed

Question: For “MRSTEVGRVVEDFIVLPPTPKSKWKLSDFELLHKLGGGNYGDVHLASVKDCNFVCALKRLSIKKLADFDIATQLRREIEIAFNTRHKYLLRTYAYFFDETDIYLIMEPCSNGMLYTELNRVKCFAPPTAARYVAQLAEALLYLHQHHILHRDIKPENILLDHNNNIKLADFGWSVHDPDNRRKTSCGTPEYFPPEIVGRQAYDTSADLWCLGIFCYELLVGKTPFVGKDTDQICKNIHSMHFKIPENIPSEAKDLIANLLLRDGSRRLALHRVVNHQFLLKYYYLPNNLQPPTGKRPRLDAEPTAGKEN”, which protein production is on record?
Answer: failed
